We go through 4 molecules from PMC9482650, “Quantitative fragmentomics allow affinity mapping of interactomes” (Nature Communications, 2022).

In test [1] the test system is HaCat cell extract preys. The test is described as follows: PDZ-AP-MS, biotinylated MBP-PDZ baits. The conditions noted are these: for Difference log2: enrichment of prey. Format: binding, human. The procedure:
(§1) For PDZ-AP-MS experiments, PDZ domains were cloned as His6-AviTag-MBP-PDZ constructs. For co-expression with BirA, E. coli BL21(DE3) cells were co-transformed with His6-AviTag-MBP, or His6-AviTag-MBP-PDZ-coding and PET21a-BirA (Addgene #20857) plasmids. Simultaneously to IPTG induction, 50 µM biotin was added to the media. After cell harvesting, the lysis buffer was also supplemented with 50 µM biotin. Otherwise, expression and double affinity purification was identical as previously described in details.
(§2) For PBM-AP-MS experiments, 30 μl streptavidin resin was mixed with biotin or peptide at 50–60 μM concentration in 6–6.5 resin volume for 60 min to achieve resin saturation. For PDZ-AP-MS experiments, 30 μl streptavidin resin was mixed with biotinylated MBP or MBP-PDZ at 40-50 μM concentration in >1000× resin volume for 60 min to achieve resin saturation. After saturation, resins were washed a single time (ten resin volume, holdup buffer), and were depleted with biotin (1 mM biotin, 5–10 resin volume, 10 min). Finally, resins were washed two times. 0.5 ml 2 mg/ml cell lysate was added to the dry resin (1 mg total input) and were incubated at 4 °C for 2 h. Then, the beads were washed three times with 10 resin volume buffer containing: 50 mM TRIS pH 8.5, 150 mM NaCl, 1% TritonX-100, 10× complete EDTA-free protease inhibitor cocktail, 2 mM EDTA, 1 mM TCEP. Then, the beads were washed two times with ten resin volume buffer containing: 50 mM TRIS pH 8.5, 150 mM NaCl, 1 mM TCEP. Finally, captured protein was eluted from the resin in two steps and the eluted fractions were pooled. For each elution the beads were incubated for 30 min with three resin volume buffer containing: 20 mM TRIS pH8.5, 100 mM NaCl, 500 μM TCEP, 8 M Urea. Between each step, the beads were separated by mild centrifugation and the supernatant was removed by gentle pipetting.
(§3) The samples were precipitated with TCA 20% overnight at 4 °C and centrifuged at 14,000 rpm for 10 min at 4 °C. The protein pellets were washed twice with 1 mL cold acetone and air dried. The protein extracts were solubilized in urea 8 M, reduced with 5 mM TCEP for 30 min, and alkylated with 10 mM iodoacetamide for 30 min in the dark. Double digestion was performed at 37 °C with 500 ng endoproteinase Lys-C for 4 h, followed by fourfold dilution and an overnight digestion with 500 ng trypsin. Peptide mixtures were then desalted on C18 spin-column and dried on Speed-Vacuum.
(§4) Samples were analyzed using an Ultimate 3000 nano-RSLC (Thermo Scientific, San Jose California) coupled in line with a LTQ-Orbitrap ELITE mass spectrometer via a nano-electrospray ionization source (Thermo Scientific, San Jose California). Peptide mixtures were injected in 0.1% TFA on a C18 Acclaim PepMap100 trap-column (75 µm ID × 2 cm, 3 µm, 100 Å, Thermo Fisher Scientific) for 3 min at 5 µL/min with 2% ACN, 0.1% FA in H2O and then separated on a C18 Accucore nano-column (75 µm ID × 50 cm, 2.6 µm, 150 Å, Thermo Fisher Scientific) at 220 nl/min and 38 °C with a 90 min linear gradient from 5% to 30% buffer B (A: 0.1% FA in H2O/B: 99% ACN, 0.1% FA in H2O), regeneration at 5% B. The mass spectrometer was operated in positive ionization mode, in data-dependent mode with survey scans from m/z 350–1500 acquired in the Orbitrap at a resolution of 120,000 at m/z 400. The 20 most intense peaks from survey scans were selected for further fragmentation in the Linear Ion Trap with an isolation window of 2.0 Da and were fragmented by CID with normalized collision energy of 35%. (TOP20CID method) Unassigned and single charged states were excluded from fragmentation. The Ion Target Value for the survey scans (in the Orbitrap) and the MS2 mode (in the Linear Ion Trap) were set to 1E6 and 5E3 respectively and the maximum injection time was set to 100 ms for both scan modes. Dynamic exclusion was set to 20 s after one repeat count with mass width at ±10 ppm. […]

Test [2] deals with HeLa cell extract preys. Description: PDZ-AP-MS, biotinylated MBP-PDZ baits. The conditions noted are these: for Ratio: fold enrichment of prey; for Difference: log2 enrichment of prey. Format: binding, human. As to the method:
as §1, §2, §3, §4

In test [3] the test system is HEK293T cells. Description: Label-free MS proteome of stable cell lines expressing HPV16 E6 or E6ΔPBM. Format: cell-based, human. To be noted: protein level. As to the method:
HEK293T and HeLa cells were authenticated and found 100% identity to ATCC cat. CRL-3216 and ATCC cat. CCL-2, respectively. Jurkat and HaCat cell lines were not authenticated (original source: ECACC and Deutsches Krebsforschungszentrum DKFZ, respectively). HeLa cells were grown in DMEM (1 g/L glucose, Gibco) medium completed with 5% FCS and 40 μg/mL gentamicin, diluted every 3rd/4th day 1/10. HaCat cells were grown in DMEM (1 g/L glucose, Gibco) medium completed with 10% FCS and 40 μg/mL gentamicin, diluted every 3rd/4th day 1/4. Jurkat cells were grown in RPMI (Gibco) medium completed with 10% FCS and 40 μg/mL gentamicin, diluted every 3rd/4th day 1/12. All cells were kept at 37 °C and 5% CO2. For proteomics analyses cells were seeded on T-175 flasks. After they reached confluency, adherent cells were washed with PBS once and collected by scraping with ice-cold lysis buffer (Hepes-KOH pH 7.5 50 mM, NaCl 150 mM, Triton X-100 1%, complete EDTA-free protease inhibitor cocktail 1×, EDTA 2 mM, TCEP 5 mM, glycerol 10%). Jurkat cells were collected by 1000 g × centrifugation, washed once with PBS, then collected by 1000 g × 5 min centrifugation again and lysed in ice-cold lysis buffer. Lysates were sonicated 4 × 20 s with 1 s long pulses on ice, then incubated rotating at 4 °C for 30 min. Lysates were centrifuged at 12,000 rpm 4 °C for 20 min and supernatant was kept for further analysis. Concentration determination was carried out by standard Bradford method (Bio-Rad Protein Assay Dye Reagent #5000006) using BSA (MP BIomedicals #160069) as control on a Bio-Rad SmartSpec 3000 spectrophotometer instrument.
as §3
Samples were analyzed using an Ultimate 3000 nano-RSLC (Thermo Scientific, San Jose California) coupled in line with a LTQ-Orbitrap ELITE mass spectrometer via a nano-electrospray ionization source (Thermo Scientific, San Jose California). Peptide mixtures were injected in 0.1% TFA on a C18 Acclaim PepMap100 trap-column (75 µm ID × 2 cm, 3 µm, 100 Å, Thermo Fisher Scientific) for 3 min at 5 µL/min with 2% ACN, 0.1% FA in H2O and then separated on a C18 Accucore nano-column (75 µm ID × 50 cm, 2.6 µm, 150 Å, Thermo Fisher Scientific) at 220 nl/min and 38 °C with a 90 min linear gradient from 5% to 30% buffer B (A: 0.1% FA in H2O/B: 99% ACN, 0.1% FA in H2O), regeneration at 5% B. The mass spectrometer was operated in positive ionization mode, in data-dependent mode with survey scans from m/z 350–1500 acquired in the Orbitrap at a resolution of 120,000 at m/z 400. The 20 most intense peaks from survey scans were selected for further fragmentation in the Linear Ion Trap with an isolation window of 2.0 Da and were fragmented by CID with normalized collision energy of 35%. (TOP20CID method) Unassigned and single charged states were excluded from fragmentation. The Ion Target Value for the survey scans (in the Orbitrap) and the MS2 mode (in the Linear Ion Trap) were set to 1E6 and 5E3 respectively and the maximum injection time was set to 100 ms for both scan modes. Dynamic exclusion was set to 20 s after one repeat count with mass width at ±10 ppm.
Proteins were identified by database searching using SequestHT (Thermo Fisher Scientific) with Proteome Discoverer 2.4 software (PD2.4, Thermo Fisher Scientific) on human FASTA database downloaded from SwissProt (reviewed, release 2020_11_27, 20304 entries, https://www.uniprot.org/). […]

B1: BAIAP2L1 (protein, UniProt Q9UHR4 1-511, looked up)
BAR/IMD domain-containing …: MSRGPEEVNRLTESTYRNVMEQFNPGLRNLINLGKNYEKAVNAMILAGKAYYDGVAKIGEIATGSPVSTELGHVLIEISSTHKKLNESLDENFKKFHKEIIHELEKKIELDVKYMNATLKRYQTEHKNKLESLEKSQAELKKIRRKSQGSRNALKYEHKEIEYVETVTSRQSEIQKFIADGCKEALLEEKRRFCFLVDKHCGFANHIHYYHLQSAELLNSKLPRWQETCVDAIKVPEKIMNMIEEIKTPASTPVSGTPQASPMIERSNVVRKDYDTLSKCSPKMPPAPSGRAYTSPLIDMFNNPATAAPNSQRVNNSTGTSEDPSLQRSVSVATGLNMMKKQKVKTIFPHTAGSNKTLLSFAQGDVITLLIPEEKDGWLYGEHDVSKARGWFPSSYTKLLEENETEAVTVPTPSPTPVRSISTVNLSENSSVVIPPPDYLECLSMGAAADRRADSARTTSTFKAPASKPETAAPNDANGTAKPPFLSGENPFATVKLRPTVTNDRSAPIIR
Turning to B1, the “Difference log2” value in test [1] (bait SCRIB_2 PDZ vs MBP) is reported as 3.855. For the same molecule, the “Ratio SCRIB_2/MBP” value in test [1] (bait SCRIB_2 PDZ, fold change of prey) came out at 14.4736.

B2: CDH1 (protein, UniProt P12830 155-882, looked up)
Cadherin-1: DWVIPPISCPENEKGPFPKNLVQIKSNKDKEGKVFYSITGQGADTPPVGVFIIERETGWLKVTEPLDRERIATYTLFSHAVSSNGNAVEDPMEILITVTDQNDNKPEFTQEVFKGSVMEGALPGTSVMEVTATDADDDVNTYNAAIAYTILSQDPELPDKNMFTINRNTGVISVVTTGLDRESFPTYTLVVQAADLQGEGLSTTATAVITVTDTNDNPPIFNPTTYKGQVPENEANVVITTLKVTDADAPNTPAWEAVYTILNDDGGQFVVTTNPVNNDGILKTAKGLDFEAKQQYILHVAVTNVVPFEVSLTTSTATVTVDVLDVNEAPIFVPPEKRVEVSEDFGVGQEITSYTAQEPDTFMEQKITYRIWRDTANWLEINPDTGAISTRAELDREDFEHVKNSTYTALIIATDNGSPVATGTGTLLLILSDVNDNAPIPEPRTIFFCERNPKPQVINIIDADLPPNTSPFTAELTHGASANWTIQYNDPTQESIILKPKMALEVGDYKINLKLMDNQNKDQVTTLEVSVCDCEGAAGVCRKAQPVEAGLQIPAILGILGGILALLILILLLLLFLRRRAVVKEPLLPPEDDTRDNVYYYDEEGGGEEDQDFDLSQLHRGLDARPEVTRNDVAPTLMSVPRYLPRPANPDEIGNFIDENLKAADTDPTAPPYDSLLVFDYEGSGSEAASLSSLNSSESDKDQDYDYLNEWGNRFKKLADMYGGGEDD
B2: the “Difference log2” value in test [1] (bait TX1BP3 PDZ vs MBP) is reported as 8.222. The “Ratio TX1BP3/MBP” value in test [1] (bait TX1BP3 PDZ, fold change of prey) was 298.682.

B3: NONO (protein, UniProt Q15233 1-471, looked up)
Non-POU domain-containing …: MQSNKTFNLEKQNHTPRKHHQHHHQQQHHQQQQQQPPPPPIPANGQQASSQNEGLTIDLKNFRKPGEKTFTQRSRLFVGNLPPDITEEEMRKLFEKYGKAGEVFIHKDKGFGFIRLETRTLAEIAKVELDNMPLRGKQLRVRFACHSASLTVRNLPQYVSNELLEEAFSVFGQVERAVVIVDDRGRPSGKGIVEFSGKPAARKALDRCSEGSFLLTTFPRPVTVEPMDQLDDEEGLPEKLVIKNQQFHKEREQPPRFAQPGSFEYEYAMRWKALIEMEKQQQDQVDRNIKEAREKLEMEMEAARHEHQVMLMRQDLMRRQEELRRMEELHNQEVQKRKQLELRQEEERRRREEEMRRQQEEMMRRQQEGFKGTFPDAREQEIRMGQMAMGGAMGINNRGAMPPAPVPAGTPAPPGPATMMPDGTLGLTPPTTERFGQAATMEGIGAIGGTPPAFNRAAPGAEFAPNKRRRY
As for B3, the Ratio came to 31.101 in test [2] (bait DLG1_1 PDZ vs MBP control) and 27.0527 in test [2] (bait SCRIB_2 PDZ vs MBP control). Besides, the Difference in test [2] (bait DLG1_1 PDZ vs MBP control) amounted to 4.959; in test [2] (bait SCRIB_2 PDZ (biotinylated MBP-PDZ) vs MBP control) it was 4.7577.

B4: PGP (protein, UniProt A6NDG6 1-321, looked up)
Glycerol-3-phosphate …: MAAAEAGGDDARCVRLSAERAQALLADVDTLLFDCDGVLWRGETAVPGAPEALRALRARGKRLGFITNNSSKTRAAYAEKLRRLGFGGPAGPGASLEVFGTAYCTALYLRQRLAGAPAPKAYVLGSPALAAELEAVGVASVGVGPEPLQGEGPGDWLHAPLEPDVRAVVVGFDPHFSYMKLTKALRYLQQPGCLLVGTNMDNRLPLENGRFIAGTGCLVRAVEMAAQRQADIIGKPSRFIFDCVSQEYGINPERTVMVGDRLDTDILLGATCGLKTILTLTGVSTLGDVKNNQESDCVSKKKMVPDFYVDSIADLLPALQG
Turning to B4, in test [3] (E6 cell line vs control), the “Difference log2 E6/Ctrl” value is 0.3606 and the “Ratio E6/Ctrl” value came to 1.284. For the same molecule, in test [3] (dPBM cell line vs E6 cell line), the “Difference log2 dPBM/E6” value is on record as 0.0821 and the “Ratio dPBM/E6” value was found to be 1.059. In test [3] (dPBM cell line vs control), the “Difference log2 dPBM/Ctrl” value came out at 0.4427 and the “Ratio dPBM/Ctrl” value was 1.359.
